Measurements taken from article doi:10.1101/2025.06.13.659497.

Target: biotinylated recombinant bovine serum albumin with N-terminal Avi tag (rBSA-Bt) (Bos taurus)
Assay: SPR

surface density: 28 ng/cm^2
Substance: streptavidin (from UniProt P22629 25-183) (natural protein)
